Assay results as given in publication PMC11783328.

Columns and labels:
[1] = molecular target: BG505 SOSIP.v4.1 GT1.1 trimer (BG505 SOSIP germline trimer 1.1) (HIV-1 (isolate BG505)) (UniProt Q2N0S6); assay: cryo-EM structure
[2] = molecular target: BG505 SOSIP.v4.1-GT1.1 (HIV-1 (isolate BG505)) (UniProt Q2N0S6); assay: cryo-EM structure

| Binder | stoichiometry N [1] | stoichiometry N (Ab:Env trimer) [2] |
| --- | --- | --- |
| 21N13 Fab (Fab, V domains shown) VH: QVQLQESGPGRVKPSETLSLTCAVSDDSFGSSYFYWSWIRQAPGKGLEWIGYIAYSGGVRYNPSLSSRVTISRNIHERQFYLRLTSMTAADTAVYYCARHCEDDYGYYSAAQSYGLDSWGQGIAVTVSP VL: DIQMTQSPSSLSASVGDRVTITCRTSENVNNCLNWYQQKPGKAPKLLIYRTSTLQRGVPSRFSGTGSGTDYTLTISSLQSEDFGTYYCQHYYGTPLTFGGGTMVDIK | 3 |  |
| 21M20 Fab (Fab, V domains shown) VH: EVQLVESGGGLAKPGGSLRLSCAASGFTFSRSIMHWVRQAPGKGLEWVSTINYAGSTYYADSVRGRFVISRDNSKNTLSLQMNSVRPEDRAVYHCAKDKEGYYSGGYPLWYFDLWGPGTPVTISS VL: DVQMTQSPSSLSASVGDKVSITCRASQGIADALAWYQQKPGKAPKLLIYGASNLESGVPSRFSGSGSGTDFSLTISSLQAEDFAVYYCQQRNSHPPTFGQGTRVEVK |  | 1 |
